Measured values: article PMC11167000 (2024)
No end group written: not given here.

T1: human BMP7 (human, UniProt P18075 293-431)
T1 chain: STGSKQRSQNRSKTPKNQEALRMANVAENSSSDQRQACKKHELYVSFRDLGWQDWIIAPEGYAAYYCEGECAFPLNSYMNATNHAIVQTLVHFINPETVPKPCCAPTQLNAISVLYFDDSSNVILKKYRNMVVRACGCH

T2: human BMP2 (human, UniProt P12643 283-396)
T2 chain: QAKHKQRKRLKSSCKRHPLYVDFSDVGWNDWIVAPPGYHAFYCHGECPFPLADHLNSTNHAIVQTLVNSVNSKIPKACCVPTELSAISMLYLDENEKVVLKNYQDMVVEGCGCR

T3: human Growth Differentiation Factor 5 (GDF5, A382–R501) (human, UniProt P43026 382-501)
T3 chain: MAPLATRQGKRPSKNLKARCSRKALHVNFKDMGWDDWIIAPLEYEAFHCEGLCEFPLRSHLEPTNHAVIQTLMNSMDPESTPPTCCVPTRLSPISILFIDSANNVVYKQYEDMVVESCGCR


Columns and labels:
human BMP7 [1] = biological target: T1, human BMP7; assay: SPR; Ca; replicate 2
human BMP2 [2] = biological target: T2, human BMP2; assay: SPR; Ca; replicate 2
[3] = biological target: T3, human Growth Differentiation Factor 5 …; assay: SPR; Ca; replicate 2
human BMP2 [4] = biological target: T2, human BMP2; assay: SPR; Ca; replicate 1
human BMP7 [5] = biological target: T1, human BMP7; assay: SPR; Ca; replicate 1
[6] = biological target: T3, human Growth Differentiation Factor 5 …; assay: SPR; Ca; replicate 1
[7] = biological target: T3, human Growth Differentiation Factor 5 …; assay: SPR; 2 mM EDTA; replicate 2
human BMP7 [8] = biological target: T1, human BMP7; assay: SPR; 2 mM EDTA; replicate 2
human BMP2 [9] = biological target: T2, human BMP2; assay: SPR; 2 mM EDTA; replicate 2
[10] = biological target: T3, human Growth Differentiation Factor 5 …; assay: SPR; 2 mM CaCl2; replicate 1
human BMP7 [11] = biological target: T1, human BMP7; assay: SPR; 2 mM CaCl2; replicate 1
human BMP2 [12] = biological target: T2, human BMP2; assay: SPR; 2 mM CaCl2; replicate 1
[13] = biological target: T3, human Growth Differentiation Factor 5 …; assay: SPR; 2 mM CaCl2; replicate 2
human BMP7 [14] = biological target: T1, human BMP7; assay: SPR; 2 mM CaCl2; replicate 2
human BMP2 [15] = biological target: T2, human BMP2; assay: SPR; 2 mM CaCl2; replicate 2
[16] = biological target: T3, human Growth Differentiation Factor 5 …; assay: SPR; 2 mM EDTA; replicate 1
human BMP7 [17] = biological target: T1, human BMP7; assay: SPR; 2 mM EDTA; replicate 1
human BMP2 [18] = biological target: T2, human BMP2; assay: SPR; 2 mM EDTA; replicate 1

Kd (human BMP7 [1]) [µM] | Kd (human BMP2 [2]) [µM] | Kd [3] [µM] | Kd (human BMP2 [4]) [µM] | Kd (human BMP7 [5]) [µM] | Kd [6] [µM] | Kd [7] [µM] | Kd (human BMP7 [8]) [µM] | Kd (human BMP2 [9]) [µM] | Kd [10] [µM] | Kd (human BMP7 [11]) [µM] | Kd (human BMP2 [12]) [µM] | Kd [13] [µM] | Kd (human BMP7 [14]) [µM] | Kd (human BMP2 [15]) [µM] | Kd [16] [µM] | Kd (human BMP7 [17]) [µM] | Kd (human BMP2 [18]) [µM] | Binder
0.557 | 0.771 | 0.0606 | 0.943 | 0.247 | 0.121 | – | – | – | – | – | – | – | – | – | – | – | – | TWSG1 NTD Asp34Ala (protein, disulfide (positions not given here); also: 7 disulfides in NTD, pairing not given here) CNKALCASAVSKCLIQELCQCRPGEGNCSCCKECMLCLGALWDECCDCVGMCNPRNYS
– | – | – | – | – | – | 4.01 | 12.8 | 9.54 | 4.55 | 2.94 | 2.12 | 2.84 | 5.74 | 1.65 | 4.72 | 13.5 | 8.14 | BMPR1B (receptor) KKEDGESTAPTPRPKVLRCKCHHHCPEDSVNNICSTDGYCFTMIEEDDSGLPVVTSGCLGLEGSDFQCRDTPIPHQRRSIECCTERNECNKDLHPTLPPLKNRDFVDGPIHHR
